The results in this text go back to patent US20250325672A1.

Test [1] addresses Biotinylated 2019-nCoV (COVID-19) S1 protein (16-685), His, Avitag (SARS-CoV-2), P0DTC2. The test is described as follows: SPR, Biacore T200, geomean. Background: SPR reads the build-up and loss of mass on a sensor chip optically.
Test [2] deals with SARS-CoV-2 protein used in the SPR assay of Example 2 (not named). Briefly: SPR.

Usually Kd stands for a measure of binding affinity in units of concentration. A high value points to lower affinity. Take CIPLDWTCMIAC (modifications not checked) [BCY18707]: the Kd in test [1] was 2440 nM. By pKD is commonly meant −log10 of the KD, conventionally taken in molar units. Higher therefore signals a low KD. The molecule CVNKHNPVCRFYC (modifications not checked) [BCY16911] gave a pKD in test [2] of 8.
